Measurements published in patent US20260184768A1.

What was measured:
[1] = molecular target: full-length PcrV.6xhis (Pseudomonas aeruginosa); experiment: SPR (Biacore T200), mAb captured via anti-human Fc, PcrV injected, 37 C
[2] = molecular target: full-length PcrV.6xhis (Pseudomonas aeruginosa); experiment: SPR (Biacore T200), mAb captured via anti-human Fc, PcrV injected, 25 C

Substance: REGN1932 (antibody)
- 90 nM Ag Bound (RU) [1]: -22.5 RU
- 90 nM Ag Bound (RU) [2]: -5.9 RU
